Results taken from patent US20090138983A1 (POSTECH FOUNDATION, published 2009).

What was measured:
[1] = biological target: T1, T7-tagged AtBG1 (Arabidopsis thaliana β-glucosidase 1) (Arabidopsis thaliana, UniProt Q9SE50 27-528); assay: co-immunoprecipitation with anti-T7 antibody, anti-HA Western blot, densitometry
T1 construct: Co-expressed with AtBG1:HA in protoplasts; pulled down with anti-T7 antibody; also called AtBG1:T7; not shown: T7 tag
T1 sequence (looked up): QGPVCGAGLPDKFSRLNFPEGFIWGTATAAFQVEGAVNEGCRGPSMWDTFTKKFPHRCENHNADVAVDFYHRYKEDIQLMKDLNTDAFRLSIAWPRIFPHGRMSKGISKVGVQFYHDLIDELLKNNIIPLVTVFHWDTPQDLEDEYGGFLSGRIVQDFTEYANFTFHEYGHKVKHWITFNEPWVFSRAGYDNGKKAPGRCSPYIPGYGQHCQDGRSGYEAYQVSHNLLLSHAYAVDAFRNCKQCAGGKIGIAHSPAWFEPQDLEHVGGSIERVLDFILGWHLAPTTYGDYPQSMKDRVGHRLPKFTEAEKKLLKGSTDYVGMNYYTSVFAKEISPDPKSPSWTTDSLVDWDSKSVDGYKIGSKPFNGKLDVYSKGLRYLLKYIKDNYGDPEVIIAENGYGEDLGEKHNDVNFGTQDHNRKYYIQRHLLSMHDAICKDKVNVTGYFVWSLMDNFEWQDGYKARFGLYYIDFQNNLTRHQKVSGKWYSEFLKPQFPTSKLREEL
Method: The present inventors also investigated the mechanism by which dehydration stress activates AtBG1. […] Thus, the present inventors investigated whether the mechanism by which dehydration stress activates AtBG1 is attributed to AtBG1 polymerization. Protein extracts were prepared from protoplasts co-transformed with two differently tagged forms of AtBG1, AtBG1:HA and AtBG1:T7, according to the same method as described in the above Example, and used for co-immunoprecipitation with anti-T7 antibody. Immunoprecipitates were analyzed by Western blotting using anti-HA antibody to investigate the interaction between AtBG1 molecules. As a result, HA-tagged AtBG1 was detected in the precipitate immunoprecipitated with T7-antibody (FIG. 35). Furthermore, the amount of HA-tagged AtBG1 in the precipitate was increased by approximately 3-fold upon treatment of protoplasts with 10% PEG 8000, a chemical that induces dehydration stress, for 12 hours (measured by densitometery software, FIG. 35). Therefore, the present inventors concluded that AtBG1 undergoes homomeric interactions, which are enhanced under conditions of dehydration stress.

B1: HA-tagged AtBG1 (Arabidopsis thaliana β-glucosidase 1) (enzyme, UniProt Q9SE50 27-528, looked up)
chain: T1 sequence (looked up)
notes: Expressed in Arabidopsis protoplasts or in 'rescued atbg1' plants and tested in protein extracts; also called AtBG1:HA; AtBG1::HA; not shown: virus HA (hemagglutinin) tag
[1]
  fold increase of the co-precipitated amount upon 10% PEG 8000 (12 hours) against untreated protoplasts: ~3 fold
Q9SE50
  ABA-GE hydrolyzing activity (ABA content by ELISA) of high against low molecular weight forms of AtBG1 after gel filtration and anti-HA immunoprecipitation: High molecular weight forms exhibited 4-fold higher AtBG1 activity
